T1: human CD69 recombinant protein (extracellular region 62-199, homodimer) (human, UniProt Q07108 62-199)
T1 construct: Expressed in the E. coli periplasm from cDNA NM_001781; also called human CD69 homodimer protein; extracellular domain of human CD69
T1 sequence: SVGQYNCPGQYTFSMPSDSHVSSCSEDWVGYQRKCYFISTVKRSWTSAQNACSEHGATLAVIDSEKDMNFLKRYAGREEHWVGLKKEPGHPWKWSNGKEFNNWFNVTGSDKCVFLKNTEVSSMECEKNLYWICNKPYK

T2: human CD69 partial peptide #26 (YAGREEHWVGLK) (human)
T2 construct: Immobilized on a PepSpots peptide array (JPT)
T2 peptide: YAGREEHWVGLK

T3: human CD69 partial peptide #24 (MNFLKRYAGREE) (human)
T3 construct: Immobilized on a PepSpots peptide array (JPT)
T3 peptide: MNFLKRYAGREE

T4: human CD69 partial peptide #25 (LKRYAGREEHWV) (human)
T4 construct: Immobilized on a PepSpots peptide array (JPT)
T4 peptide: LKRYAGREEHWV


Columns and labels:
[1] = molecular target: T1, human CD69 recombinant protein …; experiment: Scatchard plot KD; reference 160-c76 IgG
Procedure: (§1) The affinity of the prepared IgG clones for human CD69 was evaluated by scatchard plot. To be specific, it was calculated according to the principle described in Immunoassays (OXFORD UNIVERSITY PRESS, 2000). An antibody was incubated with various concentrations of antigen at room temperature for 2 hr until it reaches equilibrium, and the amount of free antibody present in the incubation liquids was measured by the ELISA method. The binding constant and dissociation constant (KD value) were determined based on the changes in the amount of free antibody in each equilibrate sample. The concentration of the antibody in the equilibration reaction was set to […], and an ELISA plate immobilized with the antigen at 1 μg/ml was used for the measurement of the amount of free antibody.

[2] = molecular target: T1, human CD69 recombinant protein …; experiment: Scatchard plot; solution equilibrium with antigen, free IgG measured by ELISA
Procedure: In the present specification, the KD value relating to the binding affinity of the antibody of the present invention to human CD69 is calculated according to the principle described in Immunoassays (OXFORD UNIVERSITY PRESS, 2000) using a scatchard plot method. An antibody is incubated with various concentrations of antigen (extracellular domain of human CD69) at room temperature for 2 hr until equilibrium, and the amount of free antibody present in the incubation solutions is measured by the ELISA method. The binding constant and dissociation constant (KD value) are determined based on the changes in the amount of free antibody in each equilibrated sample. The antibody concentration during equilibration reaction is to be 0.015 μg/ml, and an ELISA plate for the measurement of the amount of free antibody is to be immobilized with the antigen at 1 μg/ml.
as §1

[3] = molecular target: T2, human CD69 partial peptide #26 …; experiment: peptide array (PepSpots), HRP-labelled antibody
From the text: (§2) To be specific, as shown in the following Table, a peptide array consisting of peptides having the residue number of 12 amino acid residues and an offset of 3 amino acid residues was produced for a sequence covering the extracellular domain of human CD69 (60-199) (PepSpots, manufactured by JPT). The peptide array and the anti-human CD69 antibody were reacted according to the manual of JPT. Anti-human CD69 antibodies labeled with HRP (Peroxidase Labeling Kit-NH2, manufactured by Dojindo) were used.

[4] = molecular target: T3, human CD69 partial peptide #24 …; experiment: peptide array (PepSpots), HRP-labelled antibody
From the text: as §2

[5] = molecular target: T4, human CD69 partial peptide #25 …; experiment: peptide array (PepSpots), HRP-labelled antibody
From the text: as §2

| fold increase of affinity against 160-c76 [1] [fold] | Kd [2] [nM] | binding result [3] | binding result [4] | binding result [5] | Binder |
| --- | --- | --- | --- | --- | --- |
| 9 | 1.13 | – | – | – | 234-61 IgG antibody (IgG4) (antibody, V domains shown) VH: QVQPGGSLRLSCAASGFTFSNFVMHWVRQAPGKGLEWVSSISGSSSSTYYADSVKGRFTISRDNSKNTLYLQMNSLRAEDTAVYYCARYYYASFDYWGQGTLVTVSS VL: DIELTQPPSVSVAPGQTARISCSGDSLGSKYVYWYQQKPGQAPVVVIYGDSKRPSGIPERFSGSNSGNTATLTISGTQAEDEADYYCQSYTSFTTKIVFGGGTKLTVLG |
| – | 27.8 | – | – | – | 160-c76 IgG antibody (IgG4) (antibody, V domains shown, Full IgG made in HEK293T) VH: QVQPGGSLRLSCAASGFTFSNFVMHWVRQAPGKGLEWVSSISGSSSSTYYADSVKGRFTISRDNSKNTLYLQMNSLRAEDTAVYYCARYYYASFDYWGQGTLVTVSS VL: DIELTQPPSVSVAPGQTARISCSGDSLGSKYVYWYQQKPGQAPVVVIYGDSKRPSGIPERFSGSNSGNTATLTISGTQAEDEADYYCQSYDSNIMVFGGGTKLTVLG |
| ≥ 9 | 2.83 | – | – | – | 234-83 IgG antibody (IgG4) (antibody, V domains shown, HRP-labelled in the peptide array) VH: QVQPGGSLRLSCAASGFTFSNFVMHWVRQAPGKGLEWVSSISGSSSSTYYADSVKGRFTISRDNSKNTLYLQMNSLRAEDTAVYYCARYYYASFDYWGQGTLVTVSS VL: DIELTQPPSVSVAPGQTARISCSGDSLGSKYVYWYQQKPGQAPVVVIYGDSKRPSGIPERFSGSNSGNTATLTISGTQAEDEADYYCGSYTTGAKSHVFGGGTKLTVLG |
| – | 7.58 | binds | binds | binds | 160-c103 IgG antibody (IgG4) (antibody, V domains shown, Full IgG made in HEK293T; HRP-labelled in the peptide array) VH: QVQLVESGGGLVQPGGSLRLSCAASGFTFSNYYMSWVRQAPGKGLEWVSVISYDGISTHYADSVKGRFTISRDNSKNTLYLQMNSLRAEDTAVYYCARYIGNSLYMDFWGQGTLVTVSS VL: DIVLTQSPATLSLSPGERATLSCRASQSVSSYLAWYQQKPGQAPRLLIYGTSIRATGVPARFSGSGSGTDFTLTISSLEPEDFATYYCQQEYSSPPTFGQGTKVEIKR |
| – | 47.6 | binds | – | – | 160-c7 IgG antibody (IgG4) (antibody, V domains shown, Full IgG made in HEK293T; HRP-labelled in the peptide array) VH: QVQLVQSGAEVKKPGASVKVSCKASGYTFTSYDMHWVRQAPGQGLEWMGWINPYSGNTNYAQKFQGRVTMTRDTSISTAYMELSSLRSEDTAVYYCARMYYDKDYLSWGTDSWGQGTLVTVSS VL: DIQMTQSPSSLSASVGDRVTITCRASQDISSYLNWYQQKPGKAPKLLIYGASNLQSGVPSRFSGSGSGTDFTLTISSLQPEDFAVYYCQQYSDYPHTFGQGTKVEIKR |
